One block for each binder: values may come before it. Bridge positions count the residues as written; N and C are the ends. Square brackets hold non-standard residues; d marks the D form. * marks the point of attachment. αGalNAc = CC(=O)N[C@@H]1[C@@H](O)[C@@H](O)[C@@H](CO)O[C@@H]1*; Hyp = O=C(O)[C@@H]1C[C@@H](O)CN1; Cha = N[C@@H](CC1CCCCC1)C(=O)O; CF5 = 5-carboxyfluorescein; AEEA = NCCOCCOCC(=O)O
Legend:
[1] = molecular target: T1, fibrin; test: competition fluorescence polarization assay (n = 2)
T1 chain 1: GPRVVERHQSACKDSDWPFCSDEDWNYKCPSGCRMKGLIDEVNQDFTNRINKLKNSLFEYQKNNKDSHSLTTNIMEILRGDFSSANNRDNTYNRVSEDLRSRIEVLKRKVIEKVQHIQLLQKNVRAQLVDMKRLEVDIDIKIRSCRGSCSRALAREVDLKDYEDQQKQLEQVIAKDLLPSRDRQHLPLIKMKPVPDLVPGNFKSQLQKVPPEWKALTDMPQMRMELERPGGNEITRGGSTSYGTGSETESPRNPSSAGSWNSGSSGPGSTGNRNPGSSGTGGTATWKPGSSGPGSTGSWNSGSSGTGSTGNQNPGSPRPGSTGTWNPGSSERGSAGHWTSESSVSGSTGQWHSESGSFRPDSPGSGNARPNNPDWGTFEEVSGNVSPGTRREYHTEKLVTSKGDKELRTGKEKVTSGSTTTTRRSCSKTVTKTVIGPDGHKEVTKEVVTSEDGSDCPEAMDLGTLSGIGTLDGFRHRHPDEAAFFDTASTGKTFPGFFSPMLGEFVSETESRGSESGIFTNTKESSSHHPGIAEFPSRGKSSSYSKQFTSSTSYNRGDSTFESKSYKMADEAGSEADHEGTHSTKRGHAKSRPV
T1 chain 2: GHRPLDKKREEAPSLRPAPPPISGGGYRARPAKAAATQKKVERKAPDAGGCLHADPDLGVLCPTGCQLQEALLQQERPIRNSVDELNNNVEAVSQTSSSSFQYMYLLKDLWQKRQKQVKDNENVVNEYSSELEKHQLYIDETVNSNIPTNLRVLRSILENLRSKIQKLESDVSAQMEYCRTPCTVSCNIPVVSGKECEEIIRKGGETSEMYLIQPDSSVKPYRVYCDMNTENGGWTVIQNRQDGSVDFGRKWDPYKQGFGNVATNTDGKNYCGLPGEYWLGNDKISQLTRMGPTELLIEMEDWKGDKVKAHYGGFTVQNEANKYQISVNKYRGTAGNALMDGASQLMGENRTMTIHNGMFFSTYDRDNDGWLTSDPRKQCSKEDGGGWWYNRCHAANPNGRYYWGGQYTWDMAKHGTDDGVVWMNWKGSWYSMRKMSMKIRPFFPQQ
T1 chain 3: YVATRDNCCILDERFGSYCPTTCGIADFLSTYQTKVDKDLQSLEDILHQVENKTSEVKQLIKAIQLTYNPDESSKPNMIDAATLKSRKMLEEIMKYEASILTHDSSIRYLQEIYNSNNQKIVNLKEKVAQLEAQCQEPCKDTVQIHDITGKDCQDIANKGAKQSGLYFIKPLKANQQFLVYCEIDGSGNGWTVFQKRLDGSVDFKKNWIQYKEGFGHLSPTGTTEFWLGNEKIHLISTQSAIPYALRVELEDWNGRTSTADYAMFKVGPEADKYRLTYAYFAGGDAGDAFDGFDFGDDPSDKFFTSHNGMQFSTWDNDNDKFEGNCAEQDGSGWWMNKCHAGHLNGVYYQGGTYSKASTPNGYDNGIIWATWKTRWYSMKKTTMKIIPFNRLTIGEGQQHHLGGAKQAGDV

[2] = molecular target: T1, fibrin; test: fluorescence polarization, direct binding (n = 2)

B1: Ac-GGRGWQPC*PWESWTFC*WDPGGGK-NH2 (peptide)
peptide: Ac-GGRGWQPCPWESWTFCWDPGGGK-NH2
modifications: disulfide 8-16
Rel IC50 [1]: 0.37 ratio to Ac-Seq000-GGGK-NH2

B2: Ac-RWQPC*PAESWT-Cha-C*WDPGGGK(CF5)-NH2 (peptide)
peptide: Ac-RWQPCPAESWT[Cha]CWDPGGGK(CF5)-NH2
modifications: disulfide 5-13
Kd [2]: 80 nM

B3: Ac-S(Galnac)-JWQPC*PWESWTFC*WDPGGGK-NH2 (peptide)
peptide: Ac-S(αGalNAc)[AEEA]WQPCPWESWTFCWDPGGGK-NH2
modifications: disulfide 6-14
SMILES: CC(=O)N[C@H]1[C@@H](OC[C@H](NC(C)=O)C(=O)NCCOCCOCC(=O)N[C@@H](Cc2c[nH]c3ccccc23)C(=O)N[C@@H](CCC(N)=O)C(=O)N2CCC[C@H]2C(=O)N[C@H]2CSSC[C@@H](C(=O)N[C@@H](Cc3c[nH]c4ccccc34)C(=O)N[C@@H](CC(=O)O)C(=O)N3CCC[C@H]3C(=O)NCC(=O)NCC(=O)NCC(=O)N[C@@H](CCCCN)C(N)=O)NC(=O)[C@H](Cc3ccccc3)NC(=O)[C@H]([C@@H](C)O)NC(=O)[C@H](Cc3c[nH]c4ccccc34)NC(=O)[C@H](CO)NC(=O)[C@H](CCC(=O)O)NC(=O)[C@H](Cc3c[nH]c4ccccc34)NC(=O)[C@@H]3CCCN3C2=O)O[C@H](CO)[C@H](O)[C@@H]1O
Rel IC50 [1]: 1.15 ratio to Ac-Seq000-GGGK-NH2

B5: Ac-RRGGWQPC*PWESWTFC*WDPGGGK-NH2 (peptide)
peptide: Ac-RRGGWQPCPWESWTFCWDPGGGK-NH2
modifications: disulfide 8-16
SMILES: CC(=O)N[C@@H](CCCNC(=N)N)C(=O)N[C@@H](CCCNC(=N)N)C(=O)NCC(=O)NCC(=O)N[C@@H](Cc1c[nH]c2ccccc12)C(=O)N[C@@H](CCC(N)=O)C(=O)N1CCC[C@H]1C(=O)N[C@H]1CSSC[C@@H](C(=O)N[C@@H](Cc2c[nH]c3ccccc23)C(=O)N[C@@H](CC(=O)O)C(=O)N2CCC[C@H]2C(=O)NCC(=O)NCC(=O)NCC(=O)N[C@@H](CCCCN)C(N)=O)NC(=O)[C@H](Cc2ccccc2)NC(=O)[C@H]([C@@H](C)O)NC(=O)[C@H](Cc2c[nH]c3ccccc23)NC(=O)[C@H](CO)NC(=O)[C@H](CCC(=O)O)NC(=O)[C@H](Cc2c[nH]c3ccccc23)NC(=O)[C@@H]2CCCN2C1=O
Rel IC50 [1]: 0.125 ratio to Ac-Seq000-GGGK-NH2

B8: Ac-KKGWQPC*PWESWTFC*WDPGGGK(CF5)-NH2 (peptide)
peptide: Ac-KKGWQPCPWESWTFCWDPGGGK(CF5)-NH2
modifications: disulfide 7-15
Kd [2]: 710 nM

B9: Ac-GGRGWQPC*PAESWTFC*WDPGGGK(CF5)-NH2 (peptide)
peptide: Ac-GGRGWQPCPAESWTFCWDPGGGK(CF5)-NH2
modifications: disulfide 8-16
Kd [2]: 520 nM

B10: Ac-KKGWQPC*PWESWTFC*WDPGGGK-NH2 (peptide)
peptide: Ac-KKGWQPCPWESWTFCWDPGGGK-NH2
modifications: disulfide 7-15
Rel IC50 [1]: 0.357 ratio to Ac-Seq000-GGGK-NH2

B11: Ac-KGKGKGWQPC*PWESWTFC*WDPGGGK-NH2 (peptide)
peptide: Ac-KGKGKGWQPCPWESWTFCWDPGGGK-NH2
modifications: disulfide 10-18
Rel IC50 [1]: 0.595 ratio to Ac-Seq000-GGGK-NH2

B12: Ac-KGKGKGWQPC*PWESWTFC*WDPGGGK(CF5)-NH2 (peptide)
peptide: Ac-KGKGKGWQPCPWESWTFCWDPGGGK(CF5)-NH2
modifications: disulfide 10-18
Kd [2]: 760 nM

B13: Ac-GPPGWQPC*PWESWTFC*WDPGGGK(CF5)-NH2 (peptide)
peptide: Ac-GPPGWQPCPWESWTFCWDPGGGK(CF5)-NH2
modifications: disulfide 8-16
Kd [2]: 250 nM

B16: Ac-S(Galnac)-WQPC*PWESWTFC*WDPGGGK(CF5)-NH2 (peptide)
peptide: Ac-S(αGalNAc)WQPCPWESWTFCWDPGGGK(CF5)-NH2
modifications: disulfide 5-13
Kd [2]: 500 nM

B19: Ac-GPPGWQPC*PAESWTFC*WDPGGGK(CF5)-NH2 (peptide)
peptide: Ac-GPPGWQPCPAESWTFCWDPGGGK(CF5)-NH2
modifications: disulfide 8-16
Kd [2]: 310 nM

B20: Ac-RRGGWQPC*PAESWTFC*WDPGGGK(CF5)-NH2 (peptide)
peptide: Ac-RRGGWQPCPAESWTFCWDPGGGK(CF5)-NH2
modifications: disulfide 8-16
Kd [2]: 220 nM

B24: Ac-GGRGWQPC*PWESWTFC*WDPGGGK(CF5)-NH2 (peptide)
peptide: Ac-GGRGWQPCPWESWTFCWDPGGGK(CF5)-NH2
modifications: disulfide 8-16
Kd [2]: 290 nM

B26: Ac-GPPGWQPC*PWESWTFC*WDPGGGK-NH2 (peptide)
peptide: Ac-GPPGWQPCPWESWTFCWDPGGGK-NH2
modifications: disulfide 8-16
Rel IC50 [1]: 0.235 ratio to Ac-Seq000-GGGK-NH2

B29: Ac-GWQPC*PWESWTFC*WDPGGGK(CF5)-NH2 (peptide)
peptide: Ac-GWQPCPWESWTFCWDPGGGK(CF5)-NH2
modifications: disulfide 5-13
Kd [2]: 230 nM

Now from value to binder:

Rel IC50 [1]: 0.527 ratio to Ac-Seq000-GGGK-NH2
B4: Ac-SGSGSGSGWQPC*PWESWTFC*WDPGGGK-NH2 (peptide)
peptide: Ac-SGSGSGSGWQPCPWESWTFCWDPGGGK-NH2
modifications: disulfide 12-20

Rel IC50 [1]: 0.55 ratio to Ac-Seq000-GGGK-NH2
B6: Ac-WQPC*-Hypt4-WESWTFC*WDPGGGK-NH2 (peptide)
peptide: Ac-WQPC[Hyp]WESWTFCWDPGGGK-NH2
modifications: disulfide 4-12

Rel IC50 [1]: 0.875 ratio to Ac-Seq000-GGGK-NH2
B7: Ac-WQPC*PAESWTFC*WDPGGGK-NH2 (peptide)
peptide: Ac-WQPCPAESWTFCWDPGGGK-NH2
modifications: disulfide 4-12
SMILES: CC(=O)N[C@@H](Cc1c[nH]c2ccccc12)C(=O)N[C@@H](CCC(N)=O)C(=O)N1CCC[C@H]1C(=O)N[C@H]1CSSC[C@@H](C(=O)N[C@@H](Cc2c[nH]c3ccccc23)C(=O)N[C@@H](CC(=O)O)C(=O)N2CCC[C@H]2C(=O)NCC(=O)NCC(=O)NCC(=O)N[C@@H](CCCCN)C(N)=O)NC(=O)[C@H](Cc2ccccc2)NC(=O)[C@H]([C@@H](C)O)NC(=O)[C@H](Cc2c[nH]c3ccccc23)NC(=O)[C@H](CO)NC(=O)[C@H](CCC(=O)O)NC(=O)[C@H](C)NC(=O)[C@@H]2CCCN2C1=O

Rel IC50 [1]: 0.511 ratio to Ac-Seq000-GGGK-NH2
B14: RGWQPC*PWESWTFC*WDPGGGK-NH2 (peptide)
peptide: H-RGWQPCPWESWTFCWDPGGGK-NH2
modifications: disulfide 6-14

Kd [2]: 470 nM
B15: Ac-SGSGSGSGWQPC*PWESWTFC*WDPGGGK(CF5)-NH2 (peptide)
peptide: Ac-SGSGSGSGWQPCPWESWTFCWDPGGGK(CF5)-NH2
modifications: disulfide 12-20

Kd [2]: 530 nM
B17: Ac-SGSGSGSGWQPC*PAESWTFC*WDPGGGK(CF5)-NH2 (peptide)
peptide: Ac-SGSGSGSGWQPCPAESWTFCWDPGGGK(CF5)-NH2
modifications: disulfide 12-20

Rel IC50 [1]: 0.714 ratio to Ac-Seq000-GGGK-NH2
B18: Ac-SGSGJWQPC*PWESWTFC*WDPGGGK-NH2 (peptide)
peptide: Ac-SGSG[AEEA]WQPCPWESWTFCWDPGGGK-NH2
modifications: disulfide 9-17

Kd [2]: 170 nM
B21: Ac-WQPC*PAESWT-Cha-C*WDPGGGK(CF5)-NH2 (peptide)
peptide: Ac-WQPCPAESWT[Cha]CWDPGGGK(CF5)-NH2
modifications: disulfide 4-12

Rel IC50 [1]: 0.559 ratio to Ac-Seq000-GGGK-NH2
B22: Ac-S(Galnac)-WQPC*PWESWTFC*WDPGGGK-NH2 (peptide)
peptide: Ac-S(αGalNAc)WQPCPWESWTFCWDPGGGK-NH2
modifications: disulfide 5-13

Kd [2]: 450 nM
B23: Ac-SGSGJWQPC*PWESWTFC*WDPGGGK(CF5)-NH2 (peptide)
peptide: Ac-SGSG[AEEA]WQPCPWESWTFCWDPGGGK(CF5)-NH2
modifications: disulfide 9-17

Kd [2]: 280 nM
B25: RGWQPC*PWESWTFC*WDPGGGK(CF5)-NH2 (peptide)
peptide: H-RGWQPCPWESWTFCWDPGGGK(CF5)-NH2
modifications: disulfide 6-14

Kd [2]: 570 nM
B27: Ac-SGSGJWQPC*PAESWTFC*WDPGGGK(CF5)-NH2 (peptide)
peptide: Ac-SGSG[AEEA]WQPCPAESWTFCWDPGGGK(CF5)-NH2
modifications: disulfide 9-17

Rel IC50 [1]: 0.47 ratio to Ac-Seq000-GGGK-NH2
B28: RWQPC*PWESWTFC*WDPGGGK-NH2 (peptide)
peptide: H-RWQPCPWESWTFCWDPGGGK-NH2
modifications: disulfide 5-13

Source: US20100202967A1 (BRACCO IMAGING, published 2010)
